According to patent US20200002421A1 (AbbVie / Abbott, published 2020):

Tests used:
Human full length B7-H3 [1] = target: T1, Human full length B7-H3 (human, UniProt Q5ZPR3 29-534); assay: cell-based or functional assay
T1 sequence: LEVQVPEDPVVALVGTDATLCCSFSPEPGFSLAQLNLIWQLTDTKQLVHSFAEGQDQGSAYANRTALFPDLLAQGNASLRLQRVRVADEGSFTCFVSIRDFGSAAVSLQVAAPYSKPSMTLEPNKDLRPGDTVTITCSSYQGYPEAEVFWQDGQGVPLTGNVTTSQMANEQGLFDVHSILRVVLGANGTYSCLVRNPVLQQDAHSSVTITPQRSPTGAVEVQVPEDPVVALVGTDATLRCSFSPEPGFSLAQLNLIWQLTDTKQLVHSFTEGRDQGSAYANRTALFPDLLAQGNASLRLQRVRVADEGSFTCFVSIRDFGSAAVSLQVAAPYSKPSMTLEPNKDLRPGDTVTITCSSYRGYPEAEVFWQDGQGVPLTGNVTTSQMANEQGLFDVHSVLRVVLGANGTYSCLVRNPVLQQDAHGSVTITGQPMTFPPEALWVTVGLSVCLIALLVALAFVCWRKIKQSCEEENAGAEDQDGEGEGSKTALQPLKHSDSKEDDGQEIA

Human full length B7-H3 [2] = target: T1, Human full length B7-H3; assay: FACS, 3T12 transfectants
[3] = target: T2, Cynomolgous B7-H3 on cells (cynomolgus); assay: FACS, 3T12 transfectants
T2 construct: whole, on cells; also called cyno B7-H3; cyB7-H3

[4] = target: T3, hB7-H3 (ELISA antigen of Tables 17 and 20) (human, UniProt Q5ZPR3 29-466, limits assumed); assay: ELISA
T3 sequence: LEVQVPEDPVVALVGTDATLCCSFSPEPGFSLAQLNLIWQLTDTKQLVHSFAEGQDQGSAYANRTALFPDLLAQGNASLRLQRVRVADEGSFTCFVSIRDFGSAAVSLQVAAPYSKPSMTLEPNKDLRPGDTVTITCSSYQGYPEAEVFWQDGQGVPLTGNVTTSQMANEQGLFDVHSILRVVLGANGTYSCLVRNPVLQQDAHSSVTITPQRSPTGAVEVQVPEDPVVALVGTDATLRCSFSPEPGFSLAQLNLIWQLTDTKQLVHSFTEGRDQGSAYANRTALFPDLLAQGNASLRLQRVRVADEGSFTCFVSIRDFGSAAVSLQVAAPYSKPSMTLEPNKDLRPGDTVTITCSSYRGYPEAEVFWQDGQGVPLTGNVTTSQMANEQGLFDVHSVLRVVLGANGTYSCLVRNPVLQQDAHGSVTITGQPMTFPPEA

B1: huAb3v2.6-XW (antibody, human IgG1, kappa, L234A L235A, V domains shown)
VH: EVQLVQSGAEVKKPGSSVKVSCKASGYTFSSYWMHWVRQAPGQGLEWIGLIHPESGSTNYNEMFKNRATLTVDRSTSTAYMELSSLRSEDTAVYYCAGGGRLYFDYWGQGTTVTVSS
VL: DIVMTQSPLSLPVTPGEPASISCRSSQSLVHSNQDTYLRWYLQKPGQSPQLLIYKVSNRFSGVPDRFSGSGSGTDFTLKISRVEAEDVGVYYCSQSTHVPYTFGGGTKVEIKR
modifications: synthon XW on interchain Cys
EC50 nM H1650 (in vitro tumor cell cytotoxicity) (Human full length B7-H3 [1]): 2.4 nM

B2: huAb3v2.6-SE (antibody, human IgG1, kappa, L234A L235A, V domains shown)
VH: EVQLVQSGAEVKKPGSSVKVSCKASGYTFSSYWMHWVRQAPGQGLEWIGLIHPESGSTNYNEMFKNRATLTVDRSTSTAYMELSSLRSEDTAVYYCAGGGRLYFDYWGQGTTVTVSS
VL: DIVMTQSPLSLPVTPGEPASISCRSSQSLVHSNQDTYLRWYLQKPGQSPQLLIYKVSNRFSGVPDRFSGSGSGTDFTLKISRVEAEDVGVYYCSQSTHVPYTFGGGTKVEIKR
modifications: synthon SE on interchain Cys
EC50 nM H1650 (in vitro tumor cell cytotoxicity) (Human full length B7-H3 [1]): 1.01 nM

B3: huAb3v2.6-SR (antibody, human IgG1, kappa, L234A L235A, V domains shown)
VH: EVQLVQSGAEVKKPGSSVKVSCKASGYTFSSYWMHWVRQAPGQGLEWIGLIHPESGSTNYNEMFKNRATLTVDRSTSTAYMELSSLRSEDTAVYYCAGGGRLYFDYWGQGTTVTVSS
VL: DIVMTQSPLSLPVTPGEPASISCRSSQSLVHSNQDTYLRWYLQKPGQSPQLLIYKVSNRFSGVPDRFSGSGSGTDFTLKISRVEAEDVGVYYCSQSTHVPYTFGGGTKVEIKR
modifications: synthon SR on interchain Cys
EC50 nM H1650 (in vitro tumor cell cytotoxicity) (Human full length B7-H3 [1]): 0.71 nM

B4: huAb3v2.6-YG (antibody, human IgG1, kappa, L234A L235A, V domains shown)
VH: EVQLVQSGAEVKKPGSSVKVSCKASGYTFSSYWMHWVRQAPGQGLEWIGLIHPESGSTNYNEMFKNRATLTVDRSTSTAYMELSSLRSEDTAVYYCAGGGRLYFDYWGQGTTVTVSS
VL: DIVMTQSPLSLPVTPGEPASISCRSSQSLVHSNQDTYLRWYLQKPGQSPQLLIYKVSNRFSGVPDRFSGSGSGTDFTLKISRVEAEDVGVYYCSQSTHVPYTFGGGTKVEIKR
modifications: synthon YG on interchain Cys
EC50 nM H1650 (in vitro tumor cell cytotoxicity) (Human full length B7-H3 [1]): 0.68 nM

B5: huAb3v2.6-KZ (antibody, human IgG1, kappa, L234A L235A, V domains shown)
VH: EVQLVQSGAEVKKPGSSVKVSCKASGYTFSSYWMHWVRQAPGQGLEWIGLIHPESGSTNYNEMFKNRATLTVDRSTSTAYMELSSLRSEDTAVYYCAGGGRLYFDYWGQGTTVTVSS
VL: DIVMTQSPLSLPVTPGEPASISCRSSQSLVHSNQDTYLRWYLQKPGQSPQLLIYKVSNRFSGVPDRFSGSGSGTDFTLKISRVEAEDVGVYYCSQSTHVPYTFGGGTKVEIKR
modifications: synthon KZ on interchain Cys
EC50 nM H1650 (in vitro tumor cell cytotoxicity) (Human full length B7-H3 [1]): 5.52 nM

B6: huAb13v1-AAD (antibody, human IgG1, kappa, L234A L235A, V domains shown)
VH: EVQLQESGPGLVKPSETLSLTCAVTGYSITSGYSWHWIRQFPGNGLEWMGYIHSSGSTNYNPSLKSRISISRDTSKNQFFLKLSSVTAADTAVYYCAGYDDYFEYWGQGTTVTVSS
VL: DIQMTQSPSSLSASVGDRVTITCKASQNVGFNVAWYQQKPGKSPKALIYSASYRYSGVPSRFSGSGSGTDFTLTISSLQPEDFAEYFCQQYNWYPFTFGQGTKLEIKR
modifications: synthon AAD on interchain Cys
EC50 nM H1650 (in vitro tumor cell cytotoxicity) (Human full length B7-H3 [1]): 0.21 nM

B7: huAb13v1-WD (antibody, human IgG1, kappa, L234A L235A, V domains shown)
VH: EVQLQESGPGLVKPSETLSLTCAVTGYSITSGYSWHWIRQFPGNGLEWMGYIHSSGSTNYNPSLKSRISISRDTSKNQFFLKLSSVTAADTAVYYCAGYDDYFEYWGQGTTVTVSS
VL: DIQMTQSPSSLSASVGDRVTITCKASQNVGFNVAWYQQKPGKSPKALIYSASYRYSGVPSRFSGSGSGTDFTLTISSLQPEDFAEYFCQQYNWYPFTFGQGTKLEIKR
modifications: synthon WD on interchain Cys
EC50 nM H1650 (in vitro tumor cell cytotoxicity) (Human full length B7-H3 [1]): 0.45 nM

B8: huAb13v1-LB (antibody, human IgG1, kappa, L234A L235A, V domains shown)
VH: EVQLQESGPGLVKPSETLSLTCAVTGYSITSGYSWHWIRQFPGNGLEWMGYIHSSGSTNYNPSLKSRISISRDTSKNQFFLKLSSVTAADTAVYYCAGYDDYFEYWGQGTTVTVSS
VL: DIQMTQSPSSLSASVGDRVTITCKASQNVGFNVAWYQQKPGKSPKALIYSASYRYSGVPSRFSGSGSGTDFTLTISSLQPEDFAEYFCQQYNWYPFTFGQGTKLEIKR
modifications: synthon LB on interchain Cys
EC50 nM H1650 (in vitro tumor cell cytotoxicity) (Human full length B7-H3 [1]): > 133 nM

B9: huAb13v1-ZT (antibody, human IgG1, kappa, L234A L235A, V domains shown)
VH: EVQLQESGPGLVKPSETLSLTCAVTGYSITSGYSWHWIRQFPGNGLEWMGYIHSSGSTNYNPSLKSRISISRDTSKNQFFLKLSSVTAADTAVYYCAGYDDYFEYWGQGTTVTVSS
VL: DIQMTQSPSSLSASVGDRVTITCKASQNVGFNVAWYQQKPGKSPKALIYSASYRYSGVPSRFSGSGSGTDFTLTISSLQPEDFAEYFCQQYNWYPFTFGQGTKLEIKR
modifications: synthon ZT on interchain Cys
EC50 nM H1650 (in vitro tumor cell cytotoxicity) (Human full length B7-H3 [1]): 0.3 nM

B10: huAb13v1-ZZ (antibody, human IgG1, kappa, L234A L235A, V domains shown)
VH: EVQLQESGPGLVKPSETLSLTCAVTGYSITSGYSWHWIRQFPGNGLEWMGYIHSSGSTNYNPSLKSRISISRDTSKNQFFLKLSSVTAADTAVYYCAGYDDYFEYWGQGTTVTVSS
VL: DIQMTQSPSSLSASVGDRVTITCKASQNVGFNVAWYQQKPGKSPKALIYSASYRYSGVPSRFSGSGSGTDFTLTISSLQPEDFAEYFCQQYNWYPFTFGQGTKLEIKR
modifications: synthon ZZ on interchain Cys
EC50 nM H1650 (in vitro tumor cell cytotoxicity) (Human full length B7-H3 [1]): 0.42 nM

B11: huAb3v2 (antibody, V domains shown)
VH: EVQLVQSGAEVKKPGSSVKVSCKASGYTFSSYWMHWVRQAPGQGLEWIGLIHPDSGSTNYNEMFKNRATLTVDRSTSTAYMELSSLRSEDTAVYYCAGGGRLYFDYWGQGTTVTVSS
VL: DIVMTQSPLSLPVTPGEPASISCRSSQSLVHSNGDTYLRWYLQKPGQSPQLLIYKVSNRFSGVPDRFSGSGSGTDFTLKISRVEAEDVGVYYCSQSTHVPYTFGGGTKVEIK
EC50 (Human full length B7-H3 [2]): 5.11 nM
EC50 [3]: 2.87 nM
EC50 [4]: 0.44 nM

B12: huAb3v2.2 (antibody, V domains shown)
VH: EVQLVQSGAEVKKPGSSVKVSCKASGYTFSSYWMHWVRQAPGQGLEWIGLIHPWSGSTNYNEMFKNRATLTVDRSTSTAYMELSSLRSEDTAVYYCAGGGRLYFDYWGQGTTVTVSS
VL: DIVMTQSPLSLPVTPGEPASISCRSSQSLVHSNRDTYLRWYLQKPGQSPQLLIYKVSNRFSGVPDRFSGSGSGTDFTLKISRVEAEDVGVYYCSQSTHVPYTFGGGTKVEIK
EC50 (Human full length B7-H3 [2]): 5.29 nM
EC50 [3]: 3.68 nM
EC50 [4]: 0.1 nM

B13: huAb3v2.3 (antibody, V domains shown)
VH: EVQLVQSGAEVKKPGSSVKVSCKASGYTFSSYWMHWVRQAPGQGLEWIGLIHPWSGSTNYNEMFKNRATLTVDRSTSTAYMELSSLRSEDTAVYYCAGGGRLYFDYWGQGTTVTVSS
VL: DIVMTQSPLSLPVTPGEPASISCRSSQSLVHSNQDTYLRWYLQKPGQSPQLLIYKVSNRFSGVPDRFSGSGSGTDFTLKISRVEAEDVGVYYCSQSTHVPYTFGGGTKVEIK
EC50 (Human full length B7-H3 [2]): 6.5 nM
EC50 [3]: 4.03 nM
EC50 [4]: 0.11 nM

B14: huAb3v2.9 (antibody, V domains shown)
VH: EVQLVQSGAEVKKPGSSVKVSCKASGYTFSSYWMHWVRQAPGQGLEWIGLIHPISGSTNYNEMFKNRATLTVDRSTSTAYMELSSLRSEDTAVYYCAGGGRLYFDYWGQGTTVTVSS
VL: DIVMTQSPLSLPVTPGEPASISCRSSQSLVHSNQDTYLRWYLQKPGQSPQLLIYKVSNRFSGVPDRFSGSGSGTDFTLKISRVEAEDVGVYYCSQSTHVPYTFGGGTKVEIK
EC50 (Human full length B7-H3 [2]): 6.16 nM
EC50 [3]: 4.64 nM
EC50 [4]: 0.16 nM

B15: huAb3v2.5 (antibody, human IgG1, kappa, L234A L235A, V domains shown)
VH: EVQLVQSGAEVKKPGSSVKVSCKASGYTFSSYWMHWVRQAPGQGLEWIGLIHPESGSTNYNEMFKNRATLTVDRSTSTAYMELSSLRSEDTAVYYCAGGGRLYFDYWGQGTTVTVSS
VL: DIVMTQSPLSLPVTPGEPASISCRSSQSLVHSNRDTYLRWYLQKPGQSPQLLIYKVSNRFSGVPDRFSGSGSGTDFTLKISRVEAEDVGVYYCSQSTHVPYTFGGGTKVEIKR
notes: Ig gamma-1 mutant / kappa
EC50 [3]: 4.86 nM
EC50 [4]: 0.13 nM

B16: huAb3v2.6 (antibody, human IgG1, kappa, L234A L235A, V domains shown)
VH: EVQLVQSGAEVKKPGSSVKVSCKASGYTFSSYWMHWVRQAPGQGLEWIGLIHPESGSTNYNEMFKNRATLTVDRSTSTAYMELSSLRSEDTAVYYCAGGGRLYFDYWGQGTTVTVSS
VL: DIVMTQSPLSLPVTPGEPASISCRSSQSLVHSNQDTYLRWYLQKPGQSPQLLIYKVSNRFSGVPDRFSGSGSGTDFTLKISRVEAEDVGVYYCSQSTHVPYTFGGGTKVEIKR
notes: Ig gamma-1 mutant / kappa
EC50 (Human full length B7-H3 [2]): 5.64 nM
EC50 [3]: 3.31 nM
EC50 [4]: 0.09 nM

B17: huAb3v2.8 (antibody, V domains shown)
VH: EVQLVQSGAEVKKPGSSVKVSCKASGYTFSSYWMHWVRQAPGQGLEWIGLIHPISGSTNYNEMFKNRATLTVDRSTSTAYMELSSLRSEDTAVYYCAGGGRLYFDYWGQGTTVTVSS
VL: DIVMTQSPLSLPVTPGEPASISCRSSQSLVHSNRDTYLRWYLQKPGQSPQLLIYKVSNRFSGVPDRFSGSGSGTDFTLKISRVEAEDVGVYYCSQSTHVPYTFGGGTKVEIK
EC50 (Human full length B7-H3 [2]): 3.94 nM
EC50 [3]: 3.01 nM
EC50 [4]: 0.14 nM
